Five molecules from PMC2887947 can be followed below.

The term Kd denotes the constant that tells how readily two partners part at equilibrium. Low values mean tighter binding, high ones weaker binding.

Read-outs that look alike come from different tables or passages of the source.

Experiment in all cases: EMSA
(In general: A gel shift assay detects complexes by their altered migration in electrophoresis.)

Series [1] concerns the target T1, M. tuberculosis H-NS (Mycobacterium tuberculosis H37Rv, UniProt I6YHB0 1-134).
T1 sequence: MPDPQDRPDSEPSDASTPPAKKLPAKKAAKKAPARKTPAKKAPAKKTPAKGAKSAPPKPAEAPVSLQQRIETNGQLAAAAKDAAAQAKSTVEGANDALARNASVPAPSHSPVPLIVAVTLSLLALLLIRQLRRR

Series [2] deals with T1, M. tuberculosis H-NS. The source holds these as a separate data set.
The target of series [3] is T2, E. coli H-NS (Escherichia coli, UniProt P0ACF8 1-137).
T2 sequence: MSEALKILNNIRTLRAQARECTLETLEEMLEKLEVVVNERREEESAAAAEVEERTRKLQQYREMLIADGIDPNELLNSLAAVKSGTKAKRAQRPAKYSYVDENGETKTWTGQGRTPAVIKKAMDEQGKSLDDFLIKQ

Series [4] concerns the target T1, M. tuberculosis H-NS. The source holds these as a separate data set.
The target of series [5] is T1, M. tuberculosis H-NS. This is another data set of the same source.
Series [6] concerns the target T2, E. coli H-NS. This is another data set of the same source.

B1: dsDNA 40% GC (83 bp) (dsDNA)
DNA 1: GTACTATACGGTTGTACAGTGTTGTTAGTGAGTTGAAGATTGGAAGTAGTTTGCTAGGTGTCTTAGGAGAGAATCGTTAGTGT
DNA 2: ACACTAACGATTCTCTCCTAAGACACCTAGCAAACTACTTCCAATCTTCAACTCACTAACAACACTGTACAACCGTATAGATC
As to B1, the binding result in series [1] was “binds”.

B2: dsDNA 70% GC (83 bp) (dsDNA)
DNA 1: GCGGTGGACGGCTGGGTCGGGTGGTGAGTGGGTTGCGATGGAGGTGGTGGGCTAGGGGGCTTAGGGGGGAGTCGGTGGTGG
DNA 2: CCACCACCGACTCCCCCCTAAGCCCCCTAGCCCACCACCTCCCATCGCCAACCCACTCACCACCCGACCCAGCCGTCCACCGC
With B2, the binding signal in series [2] is ~3 fold higher concentration for 50% binding than 40% GC dsDNA.

B3: Holliday junction (HJ) (structured_DNA)
DNA 1: GCCGTGATCACCAATGCAGATTGACGAACCTTTGCCCACGT
DNA 2: GACGTGGGCAAAGGTTCGTCAATGGACTGACAGCTGCATGG
DNA 3: GCCATGCAGCTGTCAGTCCATTGTCATGCTAGGCCTACTGC
DNA 4: GGCAGTAGGCCTAGCATGACAATCTGCATTGGTGATCACGG
For B3, the binding result in series [3] is “binds”. In addition, the dissociation constant Kd in series [1] is around 32 nM.

B4: Y-shaped junction (structured_DNA)
DNA 1: GACGTGGGCAAAGGTTCGTCAATGGACTGACAGCTGCATGG
DNA 2: GCCATGCAGCTGTCAGTCCATTGTCATGCTAGGCCTACTGC
As to B4, the binding signal in series [4] is around 7 fold higher Kd than HJ.

B5: DNA replication fork (structured_DNA)
DNA 1: GACGTGGGCAAAGGTTCGTCAATGGACTGACAGCTGCATGG
DNA 2: GCCATGCAGCTGTCAGTCCATTGTCATGCTAGGCCTACTGC
DNA 3: GCAGTAGGCCTAGCATGA
DNA 4: CGAACCTTTGCCCACGTC
For B5, in series [5], the binding signal was around 6 fold higher Kd than HJ. Further, the binding result in series [6] was “binds”.
